The text below walks through data of US20250076311A1 (Chugai, published 2025).

Sequences and labels used below:
T1: human FcγRIIaH extracellular domain, His-tagged (human, UniProt P12318 34-217)
T1 construct: also called human FcgRIIaH; FcγRIIa type H
T1 sequence: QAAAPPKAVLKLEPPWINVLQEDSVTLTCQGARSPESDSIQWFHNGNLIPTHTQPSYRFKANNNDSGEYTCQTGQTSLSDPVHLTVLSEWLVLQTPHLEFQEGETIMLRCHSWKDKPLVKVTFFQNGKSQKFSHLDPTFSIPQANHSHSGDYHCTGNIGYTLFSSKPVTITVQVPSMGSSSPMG

T2: human FcγRIIb extracellular domain with C-terminal His-tag (human, UniProt P31994 43-217)
T2 construct: also called human FcgRIIb; not shown: His-tag added to C-terminus
T2 sequence: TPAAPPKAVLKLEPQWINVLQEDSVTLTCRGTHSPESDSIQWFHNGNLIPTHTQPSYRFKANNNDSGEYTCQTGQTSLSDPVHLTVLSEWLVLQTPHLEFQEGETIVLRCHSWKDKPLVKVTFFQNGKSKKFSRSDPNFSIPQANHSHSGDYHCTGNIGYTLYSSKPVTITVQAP

T3: cynomolgus monkey FcγRIIa3 extracellular domain with C-terminal His-tag (cynomolgus monkey)
T3 construct: also called cyno FcgRIIa3; cynoFcγRIIa3; not shown: His-tag added to C-terminus
T3 chain: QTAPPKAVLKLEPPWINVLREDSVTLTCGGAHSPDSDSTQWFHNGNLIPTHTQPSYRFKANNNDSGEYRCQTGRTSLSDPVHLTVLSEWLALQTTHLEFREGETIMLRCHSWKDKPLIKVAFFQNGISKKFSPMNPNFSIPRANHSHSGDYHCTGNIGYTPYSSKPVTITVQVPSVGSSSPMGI

T4: cynomolgus monkey FcγRIIa2 extracellular domain, His-tagged (cynomolgus monkey)
T4 construct: also called cyno FcgRIIa2
T4 chain: T3 chain with I127K, K130N, P133H, R142Q

T5: cynomolgus monkey FcγRIIa3 extracellular domain, His-tagged (cynomolgus monkey)
T5 construct: also called cyno FcgRIIa3
T5 chain: T3 chain

T6: cynomolgus monkey FcγRIIb extracellular domain, His-tagged (cynomolgus monkey)
T6 construct: also called cyno FcgRIIb
T6 chain: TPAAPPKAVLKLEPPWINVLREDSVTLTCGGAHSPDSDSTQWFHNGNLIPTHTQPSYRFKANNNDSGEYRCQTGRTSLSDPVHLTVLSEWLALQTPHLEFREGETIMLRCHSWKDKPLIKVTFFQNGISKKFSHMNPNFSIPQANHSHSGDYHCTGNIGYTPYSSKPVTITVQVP

T7: cynomolgus monkey FcγRIIIaS extracellular domain, His-tagged (cynomolgus monkey, UniProt Q8SPW2 21-206 at identity 1.00))
T7 construct: also called cyno FcgRIIIaS
T7 chain: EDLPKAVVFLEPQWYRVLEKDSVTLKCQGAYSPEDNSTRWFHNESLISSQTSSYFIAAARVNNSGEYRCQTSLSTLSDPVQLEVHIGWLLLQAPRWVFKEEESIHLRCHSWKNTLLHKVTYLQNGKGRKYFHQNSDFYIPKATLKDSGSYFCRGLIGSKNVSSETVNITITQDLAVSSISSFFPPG

T8: cynomolgus monkey FcγRIIa1 extracellular domain, His-tagged (cynomolgus monkey)
T8 construct: also called cyno FcgRIIa1
T8 chain: T3 chain with T95P, A121T, S128A, P133H, N135D

B1: GpH7-B3 G237Y / GpL16-k0 (antibody, human IgG1, kappa)
heavy: not shown
light: DIVMTQSPLSLPVTPGEPASISCQASESLVHSNRNTYLHWYLQKPGQSPQLLIYKVSNRFSGVPDRFSGSGSGTDFTLKISRVEAEDVGVYYCSQNTHVPPTFGQGTKVEIERTVAAPSVFIFPPSDEQLKSGTASVVCLLNNFYPREAKVQWKVDNALQSGNSQESVTEQDSKDSTYSLSSTLTLSKADYEKHKVYACEVTHQGLSSPVTKSFNRGEC
notes: also called B3 variant G237Y
B2: GpH7-B3 P238M / GpL16-k0 (antibody, human IgG1, kappa)
heavy: not shown
light: B1 light
notes: also called B3 variant P238M
B3: GpH7-B3 N325I / GpL16-k0 (antibody, human IgG1, kappa)
heavy: not shown
light: B1 light
notes: also called B3 variant N325I
B4: M103205H795-MY181/M103202L889-SK1 (antibody, human IgG1, kappa, name in EU numbering)
heavy: QVTLKESGPVLVKPTETLTLTCTVSGIDLSHDDISWVRQAPGKGLEWVGIISYAGSTYYASWAKGRLTISKDTSKNQVVLTMTNMDPVDTATYYCARGVPAYSHGGDLWGQGTLVTVSSASTKGPSVFPLAPSSKSTSGGTAALGCLVKDYFPEPVTVSWNSGALTSGVHTFPAVLQSSGLYSLSSVVTVPSSSLGTQTYICNVNHKPSNTKVDKKVEPKSCDKTHTCPPCPAPELLNGPSVFLFPPKPKDTLMISRTPEVTCVVVDVSEEDPEVKFNWYVDGVEVHNAKTKPREEQYNSTYRVVSVLTVLHQDWLNGKEYKCKVSNKALPAPIEKTISKAKGQPREPQVYTLPPSREEMTKNQVSLTCLVKGFYPSDIAVEWESNGQPENNYKTTPTVLDSDGSFFLYSKLTVDKSRWQQGNVFSCSVMHEALHNHYTQKSLSLSP
light: DIVMTQSPATLSLSPGERATLSCTSSQSVYHANWLSWFQQKPGQPPKLLIYWASTLAYGVPSRFSGSGSGTDFTLTISSLQPEDAATYYCAGGYGGGRYAFGQGTKVEIKRTVAAPSVFIFPPSDEQLKSGTASVVCLLNNFYPREAKVQWKVDNALQSGNSQESVTEQDSKDSTYSLSSTLTLSKADYEKHKVYACEVTHQGLSSPVTKSFNRGEC
notes: EU numbering
B5: M103205H795-SG169 / M103202L889-SK1 (antibody, human IgG1, kappa, name in EU numbering)
heavy: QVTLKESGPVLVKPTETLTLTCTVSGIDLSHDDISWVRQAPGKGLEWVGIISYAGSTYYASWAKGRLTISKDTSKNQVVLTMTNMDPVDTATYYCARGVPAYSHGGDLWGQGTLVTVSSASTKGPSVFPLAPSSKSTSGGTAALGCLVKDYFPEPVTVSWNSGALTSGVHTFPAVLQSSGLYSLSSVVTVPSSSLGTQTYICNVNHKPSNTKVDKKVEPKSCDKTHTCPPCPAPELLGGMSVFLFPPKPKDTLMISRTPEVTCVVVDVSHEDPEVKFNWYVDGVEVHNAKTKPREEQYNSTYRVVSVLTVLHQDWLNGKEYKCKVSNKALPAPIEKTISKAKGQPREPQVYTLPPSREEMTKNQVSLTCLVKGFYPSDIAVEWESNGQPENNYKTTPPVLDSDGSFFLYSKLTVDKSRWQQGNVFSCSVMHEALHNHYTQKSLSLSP
light: B4 light
notes: also called P238M
B6: M103205H795-SG173 / M103202L889-SK1 (antibody, human IgG1, kappa, name in EU numbering)
heavy: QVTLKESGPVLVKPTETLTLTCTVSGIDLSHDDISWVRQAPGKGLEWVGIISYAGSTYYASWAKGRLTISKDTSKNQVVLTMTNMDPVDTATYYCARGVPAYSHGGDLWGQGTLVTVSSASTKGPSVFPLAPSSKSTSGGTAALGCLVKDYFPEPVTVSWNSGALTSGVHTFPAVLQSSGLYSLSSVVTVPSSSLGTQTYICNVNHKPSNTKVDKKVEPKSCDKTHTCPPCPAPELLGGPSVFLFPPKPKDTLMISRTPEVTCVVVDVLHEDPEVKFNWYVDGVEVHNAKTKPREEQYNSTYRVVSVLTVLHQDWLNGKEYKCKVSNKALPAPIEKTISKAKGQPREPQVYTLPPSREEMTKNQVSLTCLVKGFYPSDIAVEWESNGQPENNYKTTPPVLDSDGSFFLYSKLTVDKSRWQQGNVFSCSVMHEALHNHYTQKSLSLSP
light: B4 light
notes: also called S267L
B7: M103205H795-SG179 / M103202L889-SK1 (antibody, human IgG1, kappa, name in EU numbering)
heavy: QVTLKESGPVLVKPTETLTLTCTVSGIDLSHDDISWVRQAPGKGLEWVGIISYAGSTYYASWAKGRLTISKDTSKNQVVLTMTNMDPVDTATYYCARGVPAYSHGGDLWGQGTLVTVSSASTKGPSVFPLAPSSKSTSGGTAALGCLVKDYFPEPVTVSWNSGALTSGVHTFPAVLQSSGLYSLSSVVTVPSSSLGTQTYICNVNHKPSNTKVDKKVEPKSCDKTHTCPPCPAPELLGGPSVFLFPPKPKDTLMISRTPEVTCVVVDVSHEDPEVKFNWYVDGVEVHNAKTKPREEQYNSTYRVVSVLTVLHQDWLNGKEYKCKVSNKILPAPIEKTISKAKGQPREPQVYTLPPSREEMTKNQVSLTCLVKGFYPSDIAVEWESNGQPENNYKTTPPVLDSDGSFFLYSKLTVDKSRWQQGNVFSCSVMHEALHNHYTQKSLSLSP
light: B4 light
notes: also called A327I
B8: M103205H795-SG177 / M103202L889-SK1 (antibody, human IgG1, kappa, name in EU numbering)
heavy: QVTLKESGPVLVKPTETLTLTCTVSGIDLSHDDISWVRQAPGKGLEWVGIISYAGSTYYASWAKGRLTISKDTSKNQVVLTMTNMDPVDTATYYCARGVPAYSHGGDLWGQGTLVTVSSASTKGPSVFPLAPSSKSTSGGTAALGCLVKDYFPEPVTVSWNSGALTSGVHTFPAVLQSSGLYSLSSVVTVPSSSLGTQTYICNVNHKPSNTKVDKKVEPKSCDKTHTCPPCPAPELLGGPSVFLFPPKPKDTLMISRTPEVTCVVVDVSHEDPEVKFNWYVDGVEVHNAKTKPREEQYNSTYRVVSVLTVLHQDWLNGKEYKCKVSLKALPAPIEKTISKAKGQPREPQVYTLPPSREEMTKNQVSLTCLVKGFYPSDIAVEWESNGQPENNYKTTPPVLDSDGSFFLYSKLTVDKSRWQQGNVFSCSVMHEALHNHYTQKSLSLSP
light: B4 light
notes: also called N325L
B9: M103205H795-SG168 / M103202L889-SK1 (antibody, human IgG1, kappa, name in EU numbering)
heavy: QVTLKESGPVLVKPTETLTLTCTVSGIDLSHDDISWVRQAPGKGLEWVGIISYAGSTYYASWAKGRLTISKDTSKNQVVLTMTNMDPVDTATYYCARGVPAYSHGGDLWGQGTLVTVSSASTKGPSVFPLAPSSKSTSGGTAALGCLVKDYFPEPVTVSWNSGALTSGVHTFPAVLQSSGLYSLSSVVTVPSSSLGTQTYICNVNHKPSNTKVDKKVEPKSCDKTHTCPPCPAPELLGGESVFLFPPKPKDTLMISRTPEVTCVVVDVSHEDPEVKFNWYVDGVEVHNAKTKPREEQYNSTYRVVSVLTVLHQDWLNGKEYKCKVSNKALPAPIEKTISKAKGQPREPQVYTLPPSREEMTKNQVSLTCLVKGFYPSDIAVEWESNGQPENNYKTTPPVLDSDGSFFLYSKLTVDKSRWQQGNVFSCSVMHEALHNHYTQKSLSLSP
light: B4 light
notes: also called P238E
B10: M103205H795-SG178 / M103202L889-SK1 (antibody, human IgG1, kappa, name in EU numbering)
heavy: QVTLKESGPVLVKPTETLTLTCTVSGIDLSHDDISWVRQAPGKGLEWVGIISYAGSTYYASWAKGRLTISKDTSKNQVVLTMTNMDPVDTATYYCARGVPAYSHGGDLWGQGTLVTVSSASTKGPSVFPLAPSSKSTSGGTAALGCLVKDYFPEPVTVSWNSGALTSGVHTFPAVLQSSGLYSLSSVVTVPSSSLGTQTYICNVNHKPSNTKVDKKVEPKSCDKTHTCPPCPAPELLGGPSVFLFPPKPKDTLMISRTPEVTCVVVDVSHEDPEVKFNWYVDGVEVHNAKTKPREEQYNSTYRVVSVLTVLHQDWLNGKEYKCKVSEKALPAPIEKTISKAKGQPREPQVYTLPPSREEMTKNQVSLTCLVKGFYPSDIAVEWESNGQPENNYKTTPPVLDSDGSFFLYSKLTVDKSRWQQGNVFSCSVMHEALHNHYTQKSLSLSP
light: B4 light
notes: also called N325E
B11: M103205H795-SG174 / M103202L889-SK1 (antibody, human IgG1, kappa, name in EU numbering)
heavy: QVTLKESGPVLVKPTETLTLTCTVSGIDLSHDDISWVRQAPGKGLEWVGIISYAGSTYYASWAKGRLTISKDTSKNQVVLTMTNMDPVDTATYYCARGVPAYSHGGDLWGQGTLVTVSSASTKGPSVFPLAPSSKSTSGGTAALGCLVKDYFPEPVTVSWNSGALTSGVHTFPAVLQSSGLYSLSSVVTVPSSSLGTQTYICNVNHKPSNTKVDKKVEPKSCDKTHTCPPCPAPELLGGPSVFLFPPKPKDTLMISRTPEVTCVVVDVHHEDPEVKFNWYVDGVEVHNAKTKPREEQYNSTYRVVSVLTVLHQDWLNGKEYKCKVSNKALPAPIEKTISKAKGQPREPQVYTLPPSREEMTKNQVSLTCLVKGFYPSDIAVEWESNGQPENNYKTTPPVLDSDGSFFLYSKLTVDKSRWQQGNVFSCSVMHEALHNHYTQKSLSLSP
light: B4 light
notes: also called S267H
B12: M103205H795-SG172 / M103202L889-SK1 (antibody, human IgG1, kappa, name in EU numbering)
heavy: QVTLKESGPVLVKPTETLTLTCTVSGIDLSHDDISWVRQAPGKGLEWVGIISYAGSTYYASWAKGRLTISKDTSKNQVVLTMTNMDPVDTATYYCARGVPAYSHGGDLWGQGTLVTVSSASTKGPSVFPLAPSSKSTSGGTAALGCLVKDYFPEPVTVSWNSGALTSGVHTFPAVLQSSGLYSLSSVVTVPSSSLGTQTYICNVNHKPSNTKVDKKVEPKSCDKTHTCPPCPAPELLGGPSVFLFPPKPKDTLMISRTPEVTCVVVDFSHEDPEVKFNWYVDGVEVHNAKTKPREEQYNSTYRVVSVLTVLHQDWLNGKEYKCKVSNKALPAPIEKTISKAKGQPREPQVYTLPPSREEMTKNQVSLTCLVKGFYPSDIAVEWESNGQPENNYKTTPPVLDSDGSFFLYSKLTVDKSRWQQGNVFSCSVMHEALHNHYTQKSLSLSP
light: B4 light
notes: also called V266F
B13: M103205H795-SG176 / M103202L889-SK1 (antibody, human IgG1, kappa, name in EU numbering)
heavy: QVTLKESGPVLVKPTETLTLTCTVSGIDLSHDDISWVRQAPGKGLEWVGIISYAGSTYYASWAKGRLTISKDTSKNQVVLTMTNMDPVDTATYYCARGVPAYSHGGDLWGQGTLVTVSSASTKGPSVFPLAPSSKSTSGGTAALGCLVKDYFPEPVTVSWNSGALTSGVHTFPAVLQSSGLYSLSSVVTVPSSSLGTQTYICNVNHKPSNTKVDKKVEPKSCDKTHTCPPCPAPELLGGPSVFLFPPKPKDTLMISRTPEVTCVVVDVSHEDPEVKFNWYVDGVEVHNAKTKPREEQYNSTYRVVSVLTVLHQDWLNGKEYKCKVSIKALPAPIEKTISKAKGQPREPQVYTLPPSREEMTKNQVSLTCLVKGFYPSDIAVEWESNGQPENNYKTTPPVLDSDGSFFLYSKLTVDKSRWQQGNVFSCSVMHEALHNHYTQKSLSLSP
light: B4 light
notes: also called N325I
B14: M103205H795-SG170 / M103202L889-SK1 (antibody, human IgG1, kappa, name in EU numbering)
heavy: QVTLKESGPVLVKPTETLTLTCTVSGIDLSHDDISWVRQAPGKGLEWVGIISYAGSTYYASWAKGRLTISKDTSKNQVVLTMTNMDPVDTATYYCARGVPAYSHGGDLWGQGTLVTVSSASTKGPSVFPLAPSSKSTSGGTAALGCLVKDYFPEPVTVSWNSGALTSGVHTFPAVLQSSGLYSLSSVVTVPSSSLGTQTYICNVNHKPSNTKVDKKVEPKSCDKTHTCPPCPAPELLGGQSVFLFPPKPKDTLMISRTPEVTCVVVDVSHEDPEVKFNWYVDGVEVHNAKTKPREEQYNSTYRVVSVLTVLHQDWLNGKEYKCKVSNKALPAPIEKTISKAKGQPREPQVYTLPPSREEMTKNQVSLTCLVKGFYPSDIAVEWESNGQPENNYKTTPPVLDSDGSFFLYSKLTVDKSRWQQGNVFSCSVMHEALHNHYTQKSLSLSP
light: B4 light
notes: also called P238Q

Substitutions are numbered along the chain they refer to. Names may count otherwise.

In one assay the target is T1, human FcγRIIaH extracellular domain, …. The experiment in a line: SPR (Biacore), 25C, FcgR bound per antibody captured. On the technique in general: In SPR one partner is held on a chip, and binding of the other changes the refractive index at the surface.
Consider B1, for which the “Binding to human FcgRs (parent B3 = 100)” value was 77.
On the same count and under the same terms, for B2 the value was 86; for B3, 76.

The target of the next assay is T9, human FcγRIIIaV extracellular domain, His-tagged (human, UniProt P08637 17-208).
T9 construct: also called human FcgRIIIaV
T9 sequence (P08637 17-208 F176V): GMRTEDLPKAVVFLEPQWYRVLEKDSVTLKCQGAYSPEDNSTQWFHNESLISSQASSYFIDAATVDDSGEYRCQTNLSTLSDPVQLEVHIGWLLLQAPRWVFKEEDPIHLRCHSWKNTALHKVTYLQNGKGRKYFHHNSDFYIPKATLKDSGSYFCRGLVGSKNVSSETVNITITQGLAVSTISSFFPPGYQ
Described as above.
Turning to B1, the “Binding to human FcgRs (parent B3 = 100)” value came to 0.
For B2, the “Binding to human FcgRs (parent B3 = 100)” value was 2.
With B3, the “Binding to human FcgRs (parent B3 = 100)” value came to 1.

Another assay has as its target T2, human FcγRIIb extracellular domain with …. In words: SPR Biacore, antibody captured, FcgR analyte. The protocol:
(§1) The kinetic analysis of interactions between these antibodies and FcγR was carried out using BIACORE® T200 or BIACORE® 4000 (GE Healthcare). HBS-EP+ (GE Healthcare) was used as the running buffer, and the measurement temperature was set to 25° C. […] After the measurement, the antibody captured on the chip was washed off by allowing reaction with 10 mM glycine-HCl, pH1.5 and 25 mM NaOH so that the chip was regenerated and used repeatedly. The sensorgrams obtained as measurement results were analyzed by the 1:1 Langmuir binding model using the BIACORE® Evaluation Software to calculate the binding rate constant ka (L/mol/s) and dissociation rate constant kd (1/s), and the dissociation constant KD (mol/L) was calculated from these values. […] Regarding such interactions, KD values were calculated using the following 1:1 binding model described in BIACORE® T100 Software Handbook BR1006-48 Edition AE.
Regarding B4, binding was put at a Kd of 1400 nM.

In another assay the target is T3, cynomolgus monkey FcγRIIa3 …. The experiment in a line: SPR Biacore, antibody captured, FcgR analyte. The protocol:
as §1
Consider B4, for which the “KD fold (SG1 = 1)” value was 1.1 fold.

In the next assay the target is T10, cynomolgus monkey FcγRIIIaS extracellular domain with C-terminal His-tag (cynomolgus monkey, UniProt A3RFZ7 21-206 (rhesus entry)).
T10 construct: also called cyno FcgRIIIaS; cynoFcγRIIIaS; not shown: His-tag added to C-terminus
In words: SPR Biacore, antibody captured, FcgR analyte. How it is done: as §1
For the molecule B4, the “KD fold (SG1 = 1)” value worked out at 0.09 fold and the dissociation constant (Kd) turned out to be 4100 nM.

Another assay addresses T4, cynomolgus monkey FcγRIIa2 …. In words: SPR (Biacore), 25C, FcgR bound per antibody captured. How it is done: (§2) In the next step, cross-reactivity of these substitutions to cynoFcγRs was evaluated.
(§3) The value of the amount of FcγR binding was obtained by dividing the amount of FcγR bound by the amount of each antibody captured.
As to B5, the “Binding to cynoFcgRs (SG1 = 100)” value was 16.
Still for that read-out and setting: for B6 the value was 14; for B7, 17.
With B8, the “Binding to cynoFcgRs (SG1 = 100)” value was determined as 15.
B9: the “Binding to cynoFcgRs (SG1 = 100)” value stood at 16.
Consider B10, for which the “Binding to cynoFcgRs (SG1 = 100)” value was found to be 21.
Turning to B11, the “Binding to cynoFcgRs (SG1 = 100)” value amounted to 16.
On to B12, for which the “Binding to cynoFcgRs (SG1 = 100)” value came out at 17.
For the molecule B13, the “Binding to cynoFcgRs (SG1 = 100)” value is 15.
Still for that read-out and setting: the result for B14 reads 15.

For a further assay, the target named is T5, cynomolgus monkey FcγRIIa3 …. Described as above. How it is done:
as §2, §3
Take B5: the “Binding to cynoFcgRs (SG1 = 100)” value stood at 32.
For the molecule B6, the “Binding to cynoFcgRs (SG1 = 100)” value worked out at 21.
Take B7: the “Binding to cynoFcgRs (SG1 = 100)” value was determined as 28.
As to B8, the “Binding to cynoFcgRs (SG1 = 100)” value was 25.
With B9, the “Binding to cynoFcgRs (SG1 = 100)” value came to 30.
As to B10, the “Binding to cynoFcgRs (SG1 = 100)” value was determined as 29.
For B11, the “Binding to cynoFcgRs (SG1 = 100)” value was determined as 20.
B12: the “Binding to cynoFcgRs (SG1 = 100)” value was found to be 27.
Consider B13, for which the “Binding to cynoFcgRs (SG1 = 100)” value amounted to 19.
In the case of B14, the “Binding to cynoFcgRs (SG1 = 100)” value is 21.

The target in a further assay is T6, cynomolgus monkey FcγRIIb extracellular …. The assay is described as above. How it is done:
as §2, §3
Consider B5, for which the “Binding to cynoFcgRs (SG1 = 100)” value is 22.
On to B6, for which the “Binding to cynoFcgRs (SG1 = 100)” value worked out at 12.
For B7, the “Binding to cynoFcgRs (SG1 = 100)” value turned out to be 19.
For the molecule B8, the “Binding to cynoFcgRs (SG1 = 100)” value was 18.
As for B9, the “Binding to cynoFcgRs (SG1 = 100)” value is 28.
In the case of B10, the “Binding to cynoFcgRs (SG1 = 100)” value came out at 26.
Still for that read-out and setting: the result for B11 reads 11; that for B12, 16; that for B13, 16.
B14: the “Binding to cynoFcgRs (SG1 = 100)” value was 18.

The next assay has as its target T7, cynomolgus monkey FcγRIIIaS …. The description is as above. The protocol:
as §2, §3
For B5, the “Binding to cynoFcgRs (SG1 = 100)” value was 22.
As for B6, the “Binding to cynoFcgRs (SG1 = 100)” value turned out to be 24.
Take B7: the “Binding to cynoFcgRs (SG1 = 100)” value came to 48.
Still for that read-out and setting: for B8 the value was 21; for B9, 13; for B10, 36.
The same measure, in the same setting: for B11 the value was 15; for B12, 31; for B13, 20.
B14: the “Binding to cynoFcgRs (SG1 = 100)” value worked out at 12.

The target in the next assay is T8, cynomolgus monkey FcγRIIa1 …. The description is as above. The protocol: as §2, §3
Consider B5, for which the “Binding to cynoFcgRs (SG1 = 100)” value is 17.
Same read-out and setting: the result for B6 reads 13; that for B7, 19; that for B8, 15.
On the same count and under the same terms, the result for B9 reads 21; that for B10, 22.
Still for that read-out and setting: for B11 the value was 13; for B12, 14.
Consider B13, for which the “Binding to cynoFcgRs (SG1 = 100)” value amounted to 14.
On the same count and under the same terms, the result for B14 reads 16.

The term Kd denotes the concentration at which binding is half-saturated.
